This passage reports expression_or_secretion and structure_or_conformation results from paper PMC5498496.

A short description of series [1]: αIIbβ3 cell surface expression, flow cytometry. The settings on record: glycan lost; control: wild-type β3 with αIIb.
A short description of series [2]: eptifibatide-induced mAb binding, flow cytometry. The settings on record: glycan lost; control: wild-type β3 with αIIb.
A short description of series [3]: surface expression by mAbs 10E5, AP2, AP3, flow cytometry. As to conditions: glycan lost; control: wild-type αIIbβ3.
The nature of series [4]: αVβ3 cell surface expression, flow cytometry. As to conditions: glycan lost; control: wild-type αV with β3.

B1: integrin β3 subunit: β3-N320Q-N559Q (protein)
parent chain: MRARPRPRPLWATVLALGALAGVGVGGPNICTTRGVSSCQQCLAVSPMCAWCSDEALPLGSPRCDLKENLLKDNCAPESIEFPVSEARVLEDRPLSDKGSGDSSQVTQVSPQRIALRLRPDDSKNFSIQVRQVEDYPVDIYYLMDLSYSMKDDLWSIQNLGTKLATQMRKLTSNLRIGFGAFVDKPVSPYMYISPPEALENPCYDMKTTCLPMFGYKHVLTLTDQVTRFNEEVKKQSVSRNRDAPEGGFDAIMQATVCDEKIGWRNDASHLLVFTTDAKTHIALDGRLAGIVQPNDGQCHVGSDNHYSASTTMDYPSLGLMTEKLSQKNINLIFAVTENVVNLYQNYSELIPGTTVGVLSMDSSNVLQLIVDAYGKIRSKVELEVRDLPEELSLSFNATCLNNEVIPGLKSCMGLKIGDTVSFSIEAKVRGCPQEKEKSFTIKPVGFKDSLIVQVTFDCDCACQAQAEPNSHRCNNGNGTFECGVCRCGPGWLGSQCECSEEDYRPSQQDECSPREGQPVCSQRGECLCGQCVCHSSDFGKITGKYCECDDFSCVRYKGEMCSGHGQCSCGDCLCDSDWTGYYCNCTTRTDTCMSSNGLLCSGRGKCECGSCVCIQPGSYGDTCEKCPTCPDACTFKKECVECKKFDRGALHDENTCNRYCRDEIESVKELKDTGKDAVNCTYKNEDDCVVRFQYYEDSSGKSILYVVEEPECPKGPDILVVLLSVMGAILLIGLAALLIWKLLITIHDRKEFAKFEEERARAKWDTANNPLYKEATSTFTNITYRGT
As for B1, the expression_or_secretion entry in series [1] is “decreases”.

B2: integrin β3 subunit: β3-N320R (protein)
parent chain: B1 parent chain
Regarding B2, in series [2], the structure_or_conformation result is on record as “decreases”. Further, in series [3], the expression_or_secretion entry is reported as “no change”.

B3: integrin β3 subunit: β3-N559Q (protein)
parent chain: B1 parent chain
For the protein B3, the structure_or_conformation result in series [2] is “decreases”. In series [3], the expression_or_secretion entry is reported as “no change”.

B4: integrin β3 subunit: β3-N320S (protein)
parent chain: B1 parent chain
With B4, in series [1], the expression_or_secretion result was “decreases”.

B5: integrin αV subunit: αV-N950Q (protein)
parent chain: MAFPPRRRLRLGPRGLPLLLSGLLLPLCRAFNLDVDSPAEYSGPEGSYFGFAVDFFVPSASSRMFLLVGAPKANTTQPGIVEGGQVLKCDWSSTRRCQPIEFDATGNRDYAKDDPLEFKSHQWFGASVRSKQDKILACAPLYHWRTEMKQEREPVGTCFLQDGTKTVEYAPCRSQDIDADGQGFCQGGFSIDFTKADRVLLGGPGSFYWQGQLISDQVAEIVSKYDPNVYSIKYNNQLATRTAQAIFDDSYLGYSVAVGDFNGDGIDDFVSGVPRAARTLGMVYIYDGKNMSSLYNFTGEQMAAYFGFSVAATDINGDDYADVFIGAPLFMDRGSDGKLQEVGQVSVSLQRASGDFQTTKLNGFEVFARFGSAIAPLGDLDQDGFNDIAIAAPYGGEDKKGIVYIFNGRSTGLNAVPSQILEGQWAARSMPPSFGYSMKGATDIDKNGYPDLIVGAFGVDRAILYRARPVITVNAGLEVYPSILNQDNKTCSLPGTALKVSCFNVRFCLKADGKGVLPRKLNFQVELLLDKLKQKGAIRRALFLYSRSPSHSKNMTISRGGLMQCEELIAYLRDESEFRDKLTPITIFMEYRLDYRTAADTTGLQPILNQFTPANISRQAHILLDCGEDNVCKPKLEVSVDSDQKKIYIGDDNPLTLIVKAQNQGEGAYEAELIVSIPLQADFIGVVRNNEALARLSCAFKTENQTRQVVCDLGNPMKAGTQLLAGLRFSVHQQSEMDTSVKFDLQIQSSNLFDKVSPVVSHKVDLAVLAAVEIRGVSSPDHVFLPIPNWEHKENPETEEDVGPVVQHIYELRNNGPSSFSKAMLHLQWPYKYNNNTLLYILHYDIDGPMNCTSDMEINPLRIKISSLQTTEKNDTVAGQGERDHLITKRDLALSEGDIHTLGCGVAQCLKIVCQVGRLDRGKSAILYVKSLLWTETFMNKENQNHSYSLKSSASFNVIEFPYKNLPIEDITNSTLVTTNVTWGIQPAPMPVPVWVIILAVLAGLLLLAVLVFVMYRMGFFKRVRPPQEEQEREQLQPHENGEGNSET
Regarding B5, the expression_or_secretion entry in series [4] is reported as “decreases”.

B6: integrin αV subunit: αV-N458Q (protein)
parent chain: B5 parent chain
B6: the expression_or_secretion entry in series [4] is reported as “no change”.

B7: integrin αV subunit: αV-N943Q (protein)
parent chain: B5 parent chain
As for B7, in series [4], the expression_or_secretion entry is given as “decreases”.
